Substitutions are numbered along the chain they refer to. In names and notes the source's numbering stands. Entries after “also recorded” stand apart in the source; their conditions may differ.
Assays:
[1] = tested on: 293/KLB cells; assay: Agonist pERK AlphaLISA assay in 293/KLB cells; format: cell-based, human; conditions: 10 min at 37° C, n = 3
Description: (§1) 293T HEK cells expressing KLB (or KL) or Hep3B cells were plated to 5–6 x 10^4 cells/well density in 96-well cell culture plate coated with poly-D-Lysine (Corning). The cells were serum starved for four hours in 0.1% BSA fraction V (ThermoFisher) containing media prior to treatment with protein and/or an antagonist peptide at the mentioned concentrations for 10 min at 37° C. For the antagonist assays, a chosen fixed dose within the range of 0.8–30 nM (depending on the cell type) of FGF21 or FGF19 stimulant was added to all the wells. BaF3 cells expressing human KLB/FGFR1c or human KLB/FGFR4-1c chimera were seeded at 5 × 10^5 cells/well density in 96-well cell culture plate and serum-starved overnight. FGF21/19 analogs were diluted in 0.02% Tween-20 containing RPMI1640 medium and the cells were treated for 15 min at 37° C. Following the respective cell treatments, the cells were lysed (with lysis buffer provided in the kit) for 10 min at room temperature on a shaker and the lysate was mixed with reaction mixture (consisting of reaction buffer, activation buffer, acceptor and donor beads provided in the kit). Phosphorylated ERK1/2 (pERK) levels were subsequently recorded by EnSpire Alpha or Envision Multilabel plate reader (Perkin Elmer). The cell assays corresponding to 293/KLB or Hep3B cells were carried out with AlphaLISA SureFire Ultra pERK1/2 (Thr 202/Tyr204) kit (Perkin Elmer), and BaF3 cells were done using AlphaScreen pERK1/2 (Thr202/Tyr204) kit (Perkin Elmer).
All cellular phosphorylation data were analyzed using 3-parameter non-linear regression curve in GraphPad Prism 7. Graphs are represented as relative maximal (100%) response of the positive control. All other test analog signals were adjusted accordingly as % values. […] Each peptide and protein analog was tested in triplicates in three independent experiments (n = 3), and normalized graphs plotted are expressed as mean ± SD unless otherwise noted.

[2] = tested on: diet-induced obese (DIO) mice; assay: In vivo FGF21 agonism study in DIO mice; design: species or system mouse; conditions: for Body weight change: daily sc 0.1, 0.3 or 1 mg/kg for 7 days, n = 8
Text: (§2) All animal studies were approved by and performed according to the guidelines of the Institutional Animal Care and Use Committee of the University of Cincinnati (Cincinnati, USA). Eight-week old male C57BL/6J mice (Jackson Laboratories) were given ad libitum access to either a chow diet (lean mice), or a high-fat high-sugar diet (HFD, DIO mice) containing 58% kcal from fat (Research Diets, catalog# D12331). For DIO mice, animals were maintained on the HFD for a minimum of 3 months prior to initiation of the pharmacological studies. The mice were maintained at 22 °C on a 12-h light–dark cycle with free access to water. Before the beginning of the studies, mice were randomized into treatment groups according to body weight. All injections and tests were performed during the light cycle with a group size of n = 8.
Mice were administered vehicle, FGF21 or FGF21-19A (0.1, 0.3 and 1 mg/kg) daily via sc injections and their body weight measurements were made on alternative days. At the end of 7 day treatment, blood was collected from tail veins using EDTA-coated microvette tubes (Sarstedt), immediately placed on ice, centrifuged at 5000 × g and 4 °C for 10 min, and plasma was stored at −80 °C until analyzed. Triglycerides and cholesterol levels were analyzed using colorimetric assay (Thermo Fisher).
Statistical analyses for in vivo experiments were performed on data using a one- (Figure 5A,B and 5D) or two-way (Figure 5C) ANOVA followed by Tukey post hoc multiple comparison analysis. All results are presented as mean ± SEM, n = 5–8, and P < 0.05 was considered significant. Group size estimations were based upon a power calculation to minimally yield an 80% chance to detect a significant difference in body weight of P < 0.05.

[3] = tested on: human FGFR1/KLB; assay: Agonist pERK AlphaScreen assay in BaF3 cells, FGFR1/KLB; format: cell-based; conditions: BaF3 cells co-expressing KLB and FGFR1; 15 min at 37° C; n = 3
Text: (§3) For generating receptor specific BaF3 cell line, human FGFR1c cDNA was cloned into pMXs-IRES-Puro vector (Cell Biolabs) to generate the expression plasmid pMX-FGFR1c-IRES-Puro. Human FGFR4 sequence was re-engineered to enhance signaling by constructing chimeric cDNA encoding the extracellular region of FGFR4 fused to the intracellular region and tyrosine kinase domain of FGFR1c, and the chimeric sequence was cloned into pMX-IRES-Puro vector to generate the expression plasmid pMX-chimeric FGFR4-1c-IRES-Puro. Human KLB cDNA was cloned into pMXs-IRES-Neo vector (Cell Biolabs) to generate expression plasmid pMX-KLB-IRES-Neo. BaF3 cells were transfected with pMX-FGFR1c-IRES-Puro and pMX- FGFR4-1c chimera-IRES-Puro expression plasmids respectively by electroporation (Xcell machine, Bio-Rad, 950 μF, 370V). Cells were selected with media containing 1 μg/ml Puromycin for 10–12 days. […]
(§4) 293T HEK cells expressing KLB (or KL) or Hep3B cells were plated to 5–6 x 10^4 cells/well density in 96-well cell culture plate coated with poly-D-Lysine (Corning). […] Phosphorylated ERK1/2 (pERK) levels were subsequently recorded by EnSpire Alpha or Envision Multilabel plate reader (Perkin Elmer). […]
(§5) All cellular phosphorylation data were analyzed using 3-parameter non-linear regression curve in GraphPad Prism 7. […]

[4] = tested on: human FGFR4-1c chimera/KLB; assay: Agonist pERK AlphaScreen assay in BaF3 cells, FGFR4-1c chimera/KLB; format: cell-based; conditions: BaF3 cells co-expressing KLB and FGFR4-1c chimera; 15 min at 37° C; n = 3
Text: as §3, §4, §5

[5] = tested on: lean (C57BL/6J) mice; assay: In vivo peptide antagonism study, cFos and EGR1 mRNA in pancreas and eWAT; design: species or system mouse; conditions: 1 mg/kg sc, one hour, WAT and pancreas
Text: as §2
Mice were administered vehicle, FGF21 (1 mg/kg), or FGF19 (1 mg/kg) alone or in combination with 19C26,A^26 (30 mg/kg), (dosed 15 min prior to FGF21 or FGF19 administration) via sc injections. One-hour post FGF21 or FGF19 dosing, the mice were sacrificed and their plasma, pancreas, and epididymal white adipose tissue (eWAT) were harvested for analyses. […] Following reverse transcription, levels of cFos and early growth response-1 (EGR1) mRNA levels were subsequently probed by quantitative PCR (ThermoFisher) and analyzed by ΔΔCT method. […]

[6] = tested on: 293/KL cells; assay: Agonist pERK assay in 293/KL cells; format: cell-based, human; conditions: n = 3
Description: as §1, with “Following the respective cell treatments, the cells were lysed (with lysis buffer provided in the kit) for 10 min at room temperature on a shaker and the lysate was mixed with reaction mixture (consisting of reaction buffer, activation buffer, acceptor and donor beads provided in the kit).” left out, “The cell assays corresponding to 293/KLB or Hep3B cells were carried out with AlphaLISA SureFire Ultra pERK1/2 (Thr 202/Tyr204) kit (Perkin Elmer), and BaF3 cells were done using AlphaScreen pERK1/2 (Thr202/Tyr204) kit (Perkin Elmer).” left out
(§6) All cellular phosphorylation data were analyzed using 3-parameter non-linear regression curve in GraphPad Prism 7. […] Each peptide and protein analog was tested in triplicates in three independent experiments (n = 3), and normalized graphs plotted are expressed as mean ± SD unless otherwise noted.

[7] = tested on: Hep3B cells; assay: Agonist pERK AlphaLISA assay in Hep3B cells; format: cell-based, human; conditions: 10 min at 37° C, n = 3
Description: as §1, with “Following the respective cell treatments, the cells were lysed (with lysis buffer provided in the kit) for 10 min at room temperature on a shaker and the lysate was mixed with reaction mixture (consisting of reaction buffer, activation buffer, acceptor and donor beads provided in the kit).” left out, “The cell assays corresponding to 293/KLB or Hep3B cells were carried out with AlphaLISA SureFire Ultra pERK1/2 (Thr 202/Tyr204) kit (Perkin Elmer), and BaF3 cells were done using AlphaScreen pERK1/2 (Thr202/Tyr204) kit (Perkin Elmer).” left out
as §6

[8] = daily sc 0.1, 0.3 or 1 mg/kg, day 7

B1: FGF21,A^164: Native FGF21 with D164A substitution (protein, UniProt Q9NSA1 29-209, looked up, variant D164A)
Fibroblast growth factor 21: HPIPDSSPLLQFGGQVRQRYLYTDDAQQTEAHLEIREDGTVGGAADQSPESLLQLKALKPGVIQILGVKTSRFLCQRPDGALYGSLHFDPEACSFRELLLEDGYNVYQSEAHGLPLHLPGNKSPHRDPAPRGPARFLPLPGLPPALPEPPGILAPQPPDVGSSAPLSMVGPSQGRSPSYAS
[1]
  pERK agonist activity, in words: only negligible activity

B2: FGF21: Human FGF21 (UniProtKB #Q9NSA1 29–209, designated 1–181) (protein)
chain: B1 Fibroblast growth factor 21 with A164D
modifications: left off: SUMO (yeast), end not stated, cleaved | His6, end not stated, state not stated
[2]
  Body weight change: induced weight loss in a dose-dependent manner
[2]; [8]
  Circulating insulin: potently reduced circulating insulin when compared to vehicle treatment
[3]
  pERK agonist activity, in words: active
[4]
  pERK agonist activity, in words: minimal signaling
[1]
  pERK agonist activity, in words: nanomolar potencies
[5]
  cFos and EGR1 transcriptional activity, FGF alone: induced robust transcriptional activity in each tissue

B3: FGF23: FGF23 (#Q9GZV9: 25–251) (protein, UniProt Q9GZV9 25-251, looked up)
Fibroblast growth factor 23: YPNASPLLGSSWGGLIHLYTATARNSYHLQIHKNGHVDGAPHQTIYSALMIRSEDAGFVVITGVMSRRYLCMDFRGNIFGSHYFDPENCRFQHQTLENGYDVYHSPQYHFLVSLGRAKRAFLPGMNPPPYSQFLSRRNEIPLIHFNTPIPRRHTRSAEDDSERDPLNVLKPRARMTPAPASCSQELPSAEDNSPMASDPLGVVRGGRVNTHAGGTGPEGCRPFAKFI
[6]
  pERK agonist activity, in words: significantly more potent than FGF21

B4: FGF21-19A: Hybrid protein: FGF21 1–156 fused with FGF19 169–194 (K194A) (protein)
chain: HPIPDSSPLLQFGGQVRQRYLYTDDAQQTEAHLEIREDGTVGGAADQSPESLLQLKALKPGVIQILGVKTSRFLCQRPDGALYGSLHFDPEACSFRELLLEDGYNVYQSEAHGLPLHLPGNKSPHRDPAPRGPARFLPLPGLPPALPEPPGILAPQPLETDSMDPFGLVTGLEAVRSPSFEA
modifications: left off: SUMO (yeast), end not stated, cleaved | His6, end not stated, state not stated
[2]
  Body weight change: dramatically more potent at each corresponding dose
[2]; [8]
  Circulating insulin: potently reduced circulating insulin when compared to vehicle treatment
  Fasted plasma glucose, difference to native FGF21: statistically different only at the 0.3 mg/kg dose
[2]; daily sc 0.1, 0.3 or 1 mg/kg, end of 7 day treatment
  Plasma cholesterol: plasma cholesterol was lowered
[7]
  pERK agonist activity, in words: significantly more potent when compared to native FGF21; also recorded: ten-fold-enhanced in vitro potency
[1]
  pERK agonist activity, in words: significantly more potent when compared to native FGF21; also recorded: ten-fold-enhanced in vitro potency
